Measurements taken from patent US20210309722A1 (DUKE UNIVERSITY, published 2021).
One block for each binder: values may come before it.

Columns and labels:
[1] = biological target: FGF21 receptor complex (murine β-Klotho and FGF receptor 1) (murine, UniProt Q99N32 1-1043; P16092 22-822); experiment: cell-based or functional assay
GLP-1 receptor = experiment: cell-based or functional assay

Sequence of FGF21 receptor complex (murine β-Klotho and FGF receptor 1) (Q99N32 whole entry, chain 1 of 2): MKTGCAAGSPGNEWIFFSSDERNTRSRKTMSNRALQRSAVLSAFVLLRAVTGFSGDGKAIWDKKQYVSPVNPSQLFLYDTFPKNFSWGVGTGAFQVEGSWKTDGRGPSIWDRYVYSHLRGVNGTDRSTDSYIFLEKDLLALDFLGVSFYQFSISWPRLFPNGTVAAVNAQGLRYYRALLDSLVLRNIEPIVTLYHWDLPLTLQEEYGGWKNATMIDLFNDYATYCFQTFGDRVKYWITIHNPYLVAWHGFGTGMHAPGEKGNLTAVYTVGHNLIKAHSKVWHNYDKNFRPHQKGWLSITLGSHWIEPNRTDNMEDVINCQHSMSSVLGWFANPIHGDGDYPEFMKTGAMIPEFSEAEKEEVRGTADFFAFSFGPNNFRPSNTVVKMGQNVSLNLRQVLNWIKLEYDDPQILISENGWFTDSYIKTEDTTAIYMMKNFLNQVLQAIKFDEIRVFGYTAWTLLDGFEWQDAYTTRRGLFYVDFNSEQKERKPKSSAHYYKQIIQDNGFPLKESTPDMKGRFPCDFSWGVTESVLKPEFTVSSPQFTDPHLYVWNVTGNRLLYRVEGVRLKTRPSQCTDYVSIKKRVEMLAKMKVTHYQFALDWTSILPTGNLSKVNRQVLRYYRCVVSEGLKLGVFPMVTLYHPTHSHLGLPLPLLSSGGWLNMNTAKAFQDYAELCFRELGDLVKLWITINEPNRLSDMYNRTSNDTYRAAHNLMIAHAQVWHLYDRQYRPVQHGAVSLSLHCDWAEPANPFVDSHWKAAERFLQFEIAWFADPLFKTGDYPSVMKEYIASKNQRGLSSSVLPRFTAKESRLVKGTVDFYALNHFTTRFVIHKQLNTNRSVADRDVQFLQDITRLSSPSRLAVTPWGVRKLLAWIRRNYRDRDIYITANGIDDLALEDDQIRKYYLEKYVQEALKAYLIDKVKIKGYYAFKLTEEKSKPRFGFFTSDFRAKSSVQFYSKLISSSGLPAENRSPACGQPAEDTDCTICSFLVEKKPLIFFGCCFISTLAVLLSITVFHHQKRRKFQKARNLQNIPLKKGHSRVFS
Sequence of FGF21 receptor complex (murine β-Klotho and FGF receptor 1) (P16092 22-822, chain 2 of 2): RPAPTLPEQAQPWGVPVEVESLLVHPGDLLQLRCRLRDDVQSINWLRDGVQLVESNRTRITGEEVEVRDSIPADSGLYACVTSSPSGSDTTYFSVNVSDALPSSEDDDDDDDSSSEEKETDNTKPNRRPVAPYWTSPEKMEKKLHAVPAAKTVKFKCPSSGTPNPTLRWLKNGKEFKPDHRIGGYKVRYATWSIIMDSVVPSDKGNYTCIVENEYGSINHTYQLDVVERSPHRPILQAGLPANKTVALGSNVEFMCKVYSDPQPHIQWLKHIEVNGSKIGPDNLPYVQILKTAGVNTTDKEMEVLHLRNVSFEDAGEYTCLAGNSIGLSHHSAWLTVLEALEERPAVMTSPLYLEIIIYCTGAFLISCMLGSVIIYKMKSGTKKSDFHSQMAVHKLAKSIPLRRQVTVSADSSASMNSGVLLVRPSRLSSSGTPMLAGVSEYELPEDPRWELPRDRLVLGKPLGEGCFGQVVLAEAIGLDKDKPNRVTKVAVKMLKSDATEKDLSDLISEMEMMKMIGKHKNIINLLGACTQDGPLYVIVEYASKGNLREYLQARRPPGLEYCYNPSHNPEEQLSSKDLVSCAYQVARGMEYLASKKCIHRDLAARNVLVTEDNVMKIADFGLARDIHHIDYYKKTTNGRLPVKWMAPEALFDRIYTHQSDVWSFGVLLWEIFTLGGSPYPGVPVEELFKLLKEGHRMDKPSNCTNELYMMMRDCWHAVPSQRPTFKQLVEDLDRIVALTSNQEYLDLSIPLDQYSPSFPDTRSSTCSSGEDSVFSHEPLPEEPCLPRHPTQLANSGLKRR

B1: ELP20%Ala,120-FGF21 (other)
chain: GVGVPGVGVPGAGVPGVGVPGVGVPGVGVPGVGVPGAGVPGVGVPGVGVPGVGVPGVGVPGAGVPGVGVPGVGVPGVGVPGVGVPGAGVPGVGVPGVGVPGVGVPGVGVPGAGVPGVGVPGVGVPGVGVPGVGVPGAGVPGVGVPGVGVPGVGVPGVGVPGAGVPGVGVPGVGVPGVGVPGVGVPGAGVPGVGVPGVGVPGVGVPGVGVPGAGVPGVGVPGVGVPGVGVPGVGVPGAGVPGVGVPGVGVPGVGVPGVGVPGAGVPGVGVPGVGVPGVGVPGVGVPGAGVPGVGVPGVGVPGVGVPGVGVPGAGVPGVGVPGVGVPGVGVPGVGVPGAGVPGVGVPGVGVPGVGVPGVGVPGAGVPGVGVPGVGVPGVGVPGVGVPGAGVPGVGVPGVGVPGVGVPGVGVPGAGVPGVGVPGVGVPGVGVPGVGVPGAGVPGVGVPGVGVPGVGVPGVGVPGAGVPGVGVPGVGVPGVGVPGVGVPGAGVPGVGVPGVGVPGVGVPGVGVPGAGVPGVGVPGVGVPGVGVPGVGVPGAGVPGVGVPGVGVPGVGVPGVGVPGAGVPGVGVPGVGVPGVGVPGVGVPGAGVPGVGVPGVGVPGAYPIPDSSPLLQFGGQVRQRYLYTDDDQDTEAHLEIREDGTVVGAAHRSPESLLELKALKPGVIQILGVKASRFLCQQPDGALYGSPHFDPEACSFRERLLEDGYNVYQSEAHGLPLRLPQKDSPNQDATSWGPVRFLPMPGLLHEPQDQAGFLPPEPPDVGSSDPLSMVEGSQGRSPSYASG
FGF21 receptor EC50, ERK1/2 phosphorylation (phospho-ERK1/2 normalized to total ERK1/2) in HEK293 cells expressing FGFR1 and β-Klotho [1]: 18.8 nM
fold increase of FGF21 receptor EC50 against native mouse FGF21, ERK1/2 phosphorylation assay [1]: ~20 fold

B2: GLP1-ELP20%Ala,120 (other)
chain: HGEGTFTSDVSSYLEEQAAKEFIAWLVKGAGVGVPGVGVPGAGVPGVGVPGVGVPGVGVPGVGVPGAGVPGVGVPGVGVPGVGVPGVGVPGAGVPGVGVPGVGVPGVGVPGVGVPGAGVPGVGVPGVGVPGVGVPGVGVPGAGVPGVGVPGVGVPGVGVPGVGVPGAGVPGVGVPGVGVPGVGVPGVGVPGAGVPGVGVPGVGVPGVGVPGVGVPGAGVPGVGVPGVGVPGVGVPGVGVPGAGVPGVGVPGVGVPGVGVPGVGVPGAGVPGVGVPGVGVPGVGVPGVGVPGAGVPGVGVPGVGVPGVGVPGVGVPGAGVPGVGVPGVGVPGVGVPGVGVPGAGVPGVGVPGVGVPGVGVPGVGVPGAGVPGVGVPGVGVPGVGVPGVGVPGAGVPGVGVPGVGVPGVGVPGVGVPGAGVPGVGVPGVGVPGVGVPGVGVPGAGVPGVGVPGVGVPGVGVPGVGVPGAGVPGVGVPGVGVPGVGVPGVGVPGAGVPGVGVPGVGVPGVGVPGVGVPGAGVPGVGVPGVGVPGVGVPGVGVPGAGVPGVGVPGVGVPGVGVPGVGVPGAGVPGVGVPGVGVPGVGVPGVGVPGAGVPGVGVPGVGVPGVGVPGVGVPGAGVPGVGVPGVGVPG
GLP-1R EC50, cAMP production (cAMP-inducible luciferase reporter) in HEK293 cells expressing GLP-1R (GLP-1 receptor): 0.0295 nM
fold increase of EC50 against native GLP1, cAMP production assay (GLP-1 receptor): ~10 fold
fold increase of EC50 against native GLP-1, cAMP production assay (GLP-1 receptor): 10 fold
fold increase of GLP-1R EC50 against native GLP-1, cAMP production assay (GLP-1 receptor): ~10 fold

B3: GLP1-ELP20%Ala,120-FGF21 (other)
chain: AAHGEGTFTSDVSSYLEEQAAKEFIAWLVKGAGVGVPGVGVPGAGVPGVGVPGVGVPGVGVPGVGVPGAGVPGVGVPGVGVPGVGVPGVGVPGAGVPGVGVPGVGVPGVGVPGVGVPGAGVPGVGVPGVGVPGVGVPGVGVPGAGVPGVGVPGVGVPGVGVPGVGVPGAGVPGVGVPGVGVPGVGVPGVGVPGAGVPGVGVPGVGVPGVGVPGVGVPGAGVPGVGVPGVGVPGVGVPGVGVPGAGVPGVGVPGVGVPGVGVPGVGVPGAGVPGVGVPGVGVPGVGVPGVGVPGAGVPGVGVPGVGVPGVGVPGVGVPGAGVPGVGVPGVGVPGVGVPGVGVPGAGVPGVGVPGVGVPGVGVPGVGVPGAGVPGVGVPGVGVPGVGVPGVGVPGAGVPGVGVPGVGVPGVGVPGVGVPGAGVPGVGVPGVGVPGVGVPGVGVPGAGVPGVGVPGVGVPGVGVPGVGVPGAGVPGVGVPGVGVPGVGVPGVGVPGAGVPGVGVPGVGVPGVGVPGVGVPGAGVPGVGVPGVGVPGVGVPGVGVPGAGVPGVGVPGVGVPGVGVPGVGVPGAGVPGVGVPGVGVPGVGVPGVGVPGAGVPGVGVPGVGVPGVGVPGVGVPGAGVPGVGVPGVGVPGAYPIPDSSPLLQFGGQVRQRYLYTDDDQDTEAHLEIREDGTVVGAAHRSPESLLELKALKPGVIQILGVKASRFLCQQPDGALYGSPHFDPEACSFRERLLEDGYNVYQSEAHGLPLRLPQKDSPNQDATSWGPVRFLPMPGLLHEPQDQAGFLPPEPPDVGSSDPLSMVEGSQGRSPSYASG
FGF21 receptor EC50, ERK1/2 phosphorylation (phospho-ERK1/2 normalized to total ERK1/2) in HEK293 cells expressing FGFR1 and β-Klotho [1]: 43.2 nM

Now from value to binder:

GLP-1R EC50, cAMP production (cAMP-inducible luciferase reporter) in HEK293 cells expressing GLP-1R (GLP-1 receptor): 0.0239 nM
fold increase of EC50 against native GLP1, cAMP production assay (GLP-1 receptor): ~10 fold
B4: GLP1-ELP20%Ala,120-FGF21 (no AA leader) (other)
chain: HGEGTFTSDVSSYLEEQAAKEFIAWLVKGAGVGVPGVGVPGAGVPGVGVPGVGVPGVGVPGVGVPGAGVPGVGVPGVGVPGVGVPGVGVPGAGVPGVGVPGVGVPGVGVPGVGVPGAGVPGVGVPGVGVPGVGVPGVGVPGAGVPGVGVPGVGVPGVGVPGVGVPGAGVPGVGVPGVGVPGVGVPGVGVPGAGVPGVGVPGVGVPGVGVPGVGVPGAGVPGVGVPGVGVPGVGVPGVGVPGAGVPGVGVPGVGVPGVGVPGVGVPGAGVPGVGVPGVGVPGVGVPGVGVPGAGVPGVGVPGVGVPGVGVPGVGVPGAGVPGVGVPGVGVPGVGVPGVGVPGAGVPGVGVPGVGVPGVGVPGVGVPGAGVPGVGVPGVGVPGVGVPGVGVPGAGVPGVGVPGVGVPGVGVPGVGVPGAGVPGVGVPGVGVPGVGVPGVGVPGAGVPGVGVPGVGVPGVGVPGVGVPGAGVPGVGVPGVGVPGVGVPGVGVPGAGVPGVGVPGVGVPGVGVPGVGVPGAGVPGVGVPGVGVPGVGVPGVGVPGAGVPGVGVPGVGVPGVGVPGVGVPGAGVPGVGVPGVGVPGVGVPGVGVPGAGVPGVGVPGVGVPGVGVPGVGVPGAGVPGVGVPGVGVPGAYPIPDSSPLLQFGGQVRQRYLYTDDDQDTEAHLEIREDGTVVGAAHRSPESLLELKALKPGVIQILGVKASRFLCQQPDGALYGSPHFDPEACSFRERLLEDGYNVYQSEAHGLPLRLPQKDSPNQDATSWGPVRFLPMPGLLHEPQDQAGFLPPEPPDVGSSDPLSMVEGSQGRSPSYASG

EC50, cAMP production (cAMP-inducible luciferase reporter) in HEK293 cells expressing GLP1R (GLP-1 receptor): 0.212 nM
B5: GLP1-ELP-FGF21 (after removal of the expression-enhancing sequence) (other)
chain: MSKGPGENLYFQGAHGEGTFTSDVSSYLEEQAAKEFIAWLVKGAGVGVPGVGVPGAGVPGVGVPGVGVPGVGVPGVGVPGAGVPGVGVPGVGVPGVGVPGVGVPGAGVPGVGVPGVGVPGVGVPGVGVPGAGVPGVGVPGVGVPGVGVPGVGVPGAGVPGVGVPGVGVPGVGVPGVGVPGAGVPGVGVPGVGVPGVGVPGVGVPGAGVPGVGVPGVGVPGVGVPGVGVPGAGVPGVGVPGVGVPGVGVPGVGVPGAGVPGVGVPGVGVPGVGVPGVGVPGAGVPGVGVPGVGVPGVGVPGVGVPGAGVPGVGVPGVGVPGVGVPGVGVPGAGVPGVGVPGVGVPGVGVPGVGVPGAGVPGVGVPGVGVPGVGVPGVGVPGAGVPGVGVPGVGVPGVGVPGVGVPGAGVPGVGVPGVGVPGVGVPGVGVPGAGVPGVGVPGVGVPGVGVPGVGVPGAGVPGVGVPGVGVPGVGVPGVGVPGAGVPGVGVPGVGVPGVGVPGVGVPGAGVPGVGVPGVGVPGVGVPGVGVPGAGVPGVGVPGVGVPGVGVPGVGVPGAGVPGVGVPGVGVPGVGVPGVGVPGAGVPGVGVPGVGVPGVGVPGVGVPGAGVPGVGVPGVGVPGVGVPGVGVPGAGVPGVGVPGVGVPGAYPIPDSSPLLQFGGQVRQRYLYTDDDQDTEAHLEIREDGTVVGAAHRSPESLLELKALKPGVIQILGVKASRFLCQQPDGALYGSPHFDPEACSFRERLLEDGYNVYQSEAHGLPLRLPQKDSPNQDATSWGPVRFLPMPGLLHEPQDQAGFLPPEPPDVGSSDPLSMVEGSQGRSPSYASG
